Patent US5763174
Where two headings read alike, the source gives them in different places.

Tests used:
[1] = biological target: recombinant F-WT DRADA protein (full-length 140 kD human DRADA protein carrying an epitope-tag peptide FLAG at the NH2-terminal) (human)
[2] = biological target: T1, F-WT DRADA (Homo sapiens) (UniProt P55265); details: editing at intronic +60 site by DRADA alone; no Q/R editing alone, up to 34% Q/R with 293 extract cofactor
T1 sequence: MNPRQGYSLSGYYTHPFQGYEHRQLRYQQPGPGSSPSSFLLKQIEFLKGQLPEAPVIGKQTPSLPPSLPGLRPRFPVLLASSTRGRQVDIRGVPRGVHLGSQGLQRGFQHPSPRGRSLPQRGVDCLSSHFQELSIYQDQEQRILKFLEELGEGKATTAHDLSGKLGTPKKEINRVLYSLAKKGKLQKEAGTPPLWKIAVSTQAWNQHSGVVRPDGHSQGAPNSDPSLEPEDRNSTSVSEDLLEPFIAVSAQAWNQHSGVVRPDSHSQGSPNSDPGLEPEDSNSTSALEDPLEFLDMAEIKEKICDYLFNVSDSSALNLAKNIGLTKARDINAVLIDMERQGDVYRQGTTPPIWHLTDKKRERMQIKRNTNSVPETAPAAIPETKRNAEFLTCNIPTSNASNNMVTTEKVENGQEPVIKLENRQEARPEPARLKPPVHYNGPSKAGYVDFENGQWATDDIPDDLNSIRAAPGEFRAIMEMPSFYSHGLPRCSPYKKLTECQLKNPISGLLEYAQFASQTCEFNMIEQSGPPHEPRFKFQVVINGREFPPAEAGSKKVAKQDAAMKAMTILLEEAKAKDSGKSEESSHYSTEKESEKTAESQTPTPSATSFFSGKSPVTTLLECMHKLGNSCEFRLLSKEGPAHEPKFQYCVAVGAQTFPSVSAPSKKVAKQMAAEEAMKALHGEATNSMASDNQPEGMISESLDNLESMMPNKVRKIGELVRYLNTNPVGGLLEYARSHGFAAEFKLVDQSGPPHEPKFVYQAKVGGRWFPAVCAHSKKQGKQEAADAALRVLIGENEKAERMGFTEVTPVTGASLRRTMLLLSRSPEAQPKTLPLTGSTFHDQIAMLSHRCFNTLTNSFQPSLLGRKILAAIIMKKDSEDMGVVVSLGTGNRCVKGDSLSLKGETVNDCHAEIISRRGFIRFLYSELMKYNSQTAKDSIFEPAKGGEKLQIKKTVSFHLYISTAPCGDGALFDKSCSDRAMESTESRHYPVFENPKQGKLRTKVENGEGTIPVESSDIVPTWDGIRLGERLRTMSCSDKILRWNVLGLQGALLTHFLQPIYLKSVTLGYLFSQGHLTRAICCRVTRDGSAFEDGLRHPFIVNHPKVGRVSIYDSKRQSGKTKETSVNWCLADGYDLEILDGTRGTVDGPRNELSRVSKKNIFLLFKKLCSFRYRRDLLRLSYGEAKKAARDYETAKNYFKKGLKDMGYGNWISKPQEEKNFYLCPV

[3] = biological target: recombinant F-WT DRADA protein (full-length 140 kD human DRADA protein carrying an epitope-tag peptide FLAG at the NH2-terminal) (human); remark: listed apart in the source
[4] = biological target: T2, DRADA (dsRNA adenosine deaminase, purified 93/88/83 kD forms) (Bos taurus) (UniProt F1MUM9); details: assay not described; species/form of DRADA not stated in the passage
T2 sequence: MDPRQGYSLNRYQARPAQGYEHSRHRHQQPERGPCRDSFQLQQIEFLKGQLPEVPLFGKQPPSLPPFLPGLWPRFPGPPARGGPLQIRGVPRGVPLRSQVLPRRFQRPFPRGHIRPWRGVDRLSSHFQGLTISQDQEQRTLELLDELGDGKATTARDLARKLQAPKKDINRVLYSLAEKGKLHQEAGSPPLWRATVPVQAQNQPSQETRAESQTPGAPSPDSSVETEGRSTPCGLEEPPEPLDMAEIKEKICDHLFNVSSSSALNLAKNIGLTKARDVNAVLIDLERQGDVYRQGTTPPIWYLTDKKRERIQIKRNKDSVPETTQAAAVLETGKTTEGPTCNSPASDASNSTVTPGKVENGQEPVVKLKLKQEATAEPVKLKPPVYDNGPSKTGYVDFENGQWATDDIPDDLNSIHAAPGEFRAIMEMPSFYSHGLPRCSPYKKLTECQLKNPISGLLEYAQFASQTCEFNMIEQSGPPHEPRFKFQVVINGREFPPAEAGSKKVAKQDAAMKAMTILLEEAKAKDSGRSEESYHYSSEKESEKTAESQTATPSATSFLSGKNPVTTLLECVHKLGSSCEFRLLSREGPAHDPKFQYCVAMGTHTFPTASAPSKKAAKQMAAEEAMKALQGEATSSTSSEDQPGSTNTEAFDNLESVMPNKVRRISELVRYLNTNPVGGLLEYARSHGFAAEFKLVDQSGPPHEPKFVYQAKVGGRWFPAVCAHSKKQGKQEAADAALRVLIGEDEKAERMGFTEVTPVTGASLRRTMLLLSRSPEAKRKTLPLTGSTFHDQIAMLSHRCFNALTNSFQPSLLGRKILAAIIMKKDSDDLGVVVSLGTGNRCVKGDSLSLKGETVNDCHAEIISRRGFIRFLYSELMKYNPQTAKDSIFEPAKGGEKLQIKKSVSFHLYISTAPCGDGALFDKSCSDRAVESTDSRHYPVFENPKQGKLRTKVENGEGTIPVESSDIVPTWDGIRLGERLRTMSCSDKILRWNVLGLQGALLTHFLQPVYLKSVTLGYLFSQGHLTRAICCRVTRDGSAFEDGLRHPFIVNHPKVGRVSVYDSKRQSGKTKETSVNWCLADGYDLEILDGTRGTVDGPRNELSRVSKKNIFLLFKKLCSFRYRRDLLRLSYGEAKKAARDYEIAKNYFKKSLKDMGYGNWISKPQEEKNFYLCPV

293 nuclear extract (unidentified cofactor protein(s) of 293 human embryonic kidney cells) (pool or library)
Q/R site editing of synthetic GluR-B RNA (in vitro editing, primer extension assay) [1]: 14%

GluR-B Bmini RNA (745 nt)
activity [2]: < 79%

HeLa nuclear extract (unidentified cofactor protein(s)) (pool or library)
Q/R site editing of synthetic GluR-B RNA (in vitro editing, primer extension assay) [3]: 63%

575 bp dsRNA
Kd [4]: 0.23 nM
